Measurements reported in patent US20170159020A1.

How the values were obtained:
[1] = target: α6β1 integrin (UniProt P23229); experiment: solid-phase integrin binding assay: 511E8 coated on plate, 10 nM α6β1 integrin, A490
[2] = target: α6β1 integrin (UniProt P23229); experiment: solid-phase integrin binding assay: 521E8 coated on plate, 10 nM α6β1 integrin, A490

Sequence of UniProt P23229 (P23229 other isoform, or with tags, fused parts or gaps limits assumed, chain 1 of 2): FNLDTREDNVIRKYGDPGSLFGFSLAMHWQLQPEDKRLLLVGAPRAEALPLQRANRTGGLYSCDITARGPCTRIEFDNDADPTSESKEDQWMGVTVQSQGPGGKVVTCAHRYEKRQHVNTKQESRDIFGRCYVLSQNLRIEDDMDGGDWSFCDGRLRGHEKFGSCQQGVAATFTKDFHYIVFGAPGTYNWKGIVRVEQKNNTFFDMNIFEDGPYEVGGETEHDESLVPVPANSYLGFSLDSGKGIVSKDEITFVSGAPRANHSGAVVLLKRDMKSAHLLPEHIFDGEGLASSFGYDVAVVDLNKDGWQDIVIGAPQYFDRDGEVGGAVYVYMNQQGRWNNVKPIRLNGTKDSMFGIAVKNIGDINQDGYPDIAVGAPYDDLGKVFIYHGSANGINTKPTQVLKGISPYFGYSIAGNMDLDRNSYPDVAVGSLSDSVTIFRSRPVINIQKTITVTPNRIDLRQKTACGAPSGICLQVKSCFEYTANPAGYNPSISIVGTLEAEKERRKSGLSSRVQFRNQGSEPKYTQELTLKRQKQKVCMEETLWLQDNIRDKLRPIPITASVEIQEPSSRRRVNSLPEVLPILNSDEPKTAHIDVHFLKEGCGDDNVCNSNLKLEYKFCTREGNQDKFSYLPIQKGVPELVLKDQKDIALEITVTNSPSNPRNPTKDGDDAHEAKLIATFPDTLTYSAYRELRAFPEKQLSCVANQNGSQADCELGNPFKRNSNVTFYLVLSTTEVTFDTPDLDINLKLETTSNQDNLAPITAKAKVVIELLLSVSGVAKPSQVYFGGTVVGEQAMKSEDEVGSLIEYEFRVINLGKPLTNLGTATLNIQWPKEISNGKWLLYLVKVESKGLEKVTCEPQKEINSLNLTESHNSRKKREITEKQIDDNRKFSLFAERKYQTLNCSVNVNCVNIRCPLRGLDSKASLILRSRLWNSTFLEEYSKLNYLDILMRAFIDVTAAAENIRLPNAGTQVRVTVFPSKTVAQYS
Sequence of UniProt P23229 (P05556 21-728 limits assumed, chain 2 of 2, further chain): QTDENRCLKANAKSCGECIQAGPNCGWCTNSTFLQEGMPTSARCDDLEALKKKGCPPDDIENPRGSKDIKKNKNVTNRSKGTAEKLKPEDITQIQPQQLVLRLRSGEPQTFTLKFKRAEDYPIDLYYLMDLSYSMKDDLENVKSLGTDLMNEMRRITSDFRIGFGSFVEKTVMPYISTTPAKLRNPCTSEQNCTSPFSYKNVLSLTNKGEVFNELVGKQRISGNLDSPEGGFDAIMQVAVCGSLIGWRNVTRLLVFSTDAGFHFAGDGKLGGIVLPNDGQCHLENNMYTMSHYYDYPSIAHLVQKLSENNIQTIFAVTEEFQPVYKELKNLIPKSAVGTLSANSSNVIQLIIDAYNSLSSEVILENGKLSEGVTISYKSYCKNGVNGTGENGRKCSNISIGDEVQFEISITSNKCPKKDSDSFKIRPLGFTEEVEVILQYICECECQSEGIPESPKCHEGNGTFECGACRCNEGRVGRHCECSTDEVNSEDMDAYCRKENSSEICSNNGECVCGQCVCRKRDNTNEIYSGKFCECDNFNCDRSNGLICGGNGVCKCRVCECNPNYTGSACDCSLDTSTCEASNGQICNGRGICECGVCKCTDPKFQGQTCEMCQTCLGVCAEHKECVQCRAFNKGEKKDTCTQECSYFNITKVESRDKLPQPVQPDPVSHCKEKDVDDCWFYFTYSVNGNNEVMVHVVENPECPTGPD

fold increase in integrin binding activity by addition of gelatin (500 µg/mL by context) to the coating solution, against 511E8 coated alone, at 2.7 nM 511E8 [1]	increase in integrin binding activity by addition of 50 µg/mL HSA to the coating solution, against 511E8 coated alone [1]	increase in integrin binding activity by addition of 50 µg/mL gelatin to the coating solution, against 511E8 coated alone [1]	increase in integrin binding activity by addition of HSA (500 µg/mL by context) to the coating solution, against 511E8 coated alone, at 2.7 nM 511E8 [1]	increase in integrin binding activity by addition of 50 µg/mL HSA to the coating solution, against 521E8 coated alone [2]	increase in integrin binding activity by addition of 50 µg/mL gelatin to the coating solution, against 521E8 coated alone [2]	increase in integrin binding activity by addition of 500 µg/mL HSA to the coating solution, against 521E8 coated alone, at 2.7 nM 521E8 [2]	increase in integrin binding activity by addition of gelatin (500 µg/mL by context) to the coating solution, against 521E8 coated alone, at 2.7 nM 521E8 [2]	Substance
> 2 fold	10%	20 to 60%	> 80%					Human recombinant laminin 511E8 (from UniProt O15230 2534-3327; P07942 1561-1786; P11047 1362-1608) (ligand)
				10 to 20%	10 to 60%	> 60%	> 80%	Human recombinant laminin 521E8 (from UniProt O15230 2534-3327; P55268 1573-1798; P11047 1362-1608) (ligand)
